Conditions: Pseudomonas aeruginosa (strain ATCC 15692 / DSM 22644 / CIP 104116 / JCM 14847 / LMG 12228 / 1C / PRS 101 / PAO1); pH 7.2; 20 °C; GdnHCl; CD + Fluorescence; Tris-HCl 50 mM; reversible: yes; whole UniProt chain shown

B1: Azurin wild type, P00282 (protein)
chain: MLRKLAAVSLLSLLSAPLLAAECSVDIQGNDQMQFNTNAITVDKSCKQFTVNLSHPGNLPKNVMGHNWVLSTAADMQGVVTDGMASGLDKDYLKPDDSRVIAHTKLIGSGEKDSVTFDVSKLKEGEQYMFFCTFPGHSALMKGTLTLK
- denaturant m value: 3.3 kcal/mol/M
- denaturant midpoint (higher = more stable): 2.78 M
- unfolding free energy: 9.4 kcal/mol

Reference: FireProtDB (doi:10.1046/j.1432-1327.1999.00751.x)
